Series [1] addresses φNM1 phage dUTPase (Staphylococcus aureus phage φNM1) (UniProt A0EWK2). Nature of the series: native MS; electrospray QTOF, positive ion mode; proteins at 40 μM in 5 mM NH4HCO3 pH 8.0.
Series [2] addresses Stl repressor protein of S. aureus pathogenicity island SaPIbov1 (Staphylococcus aureus (pathogenicity island SaPIbov1)). The experiment in a line: cross-linking; disuccinimidyl suberate (DSS, 20 mM), 20 °C, 1 h; 20 μM each protein alone or 1:1 mixture (40 μM total); SDS-PAGE.
The target of series [3] is φNM1 phage dUTPase (Staphylococcus aureus phage φNM1) (UniProt A0EWK2). The description is as above.
The target is the same in series [4].
For series [5] the target is unchanged. Nature of the series: enzyme inhibition (steady-state dUTPase activity); DUTφNM1 with Stl at 0-300 nM, pre-incubated 5 min; 293 K; 1 mM HEPES-HCl pH 7.5, 5 mM MgCl2, 150 mM KCl, phenol red; quadratic binding equation fitted; apparent.
Series [6] deals with the molecule itself. Nature of the series: cross-linking; disuccinimidyl suberate (DSS, 20 mM), 20 °C, 1 h; 20 μM each protein alone or 1:1 mixture (40 μM total); SDS-PAGE.

By stoichiometry N is commonly meant the number of molecules, sites or subunits per partner or assembly. Regarding “Stl repressor protein of S. aureus pathogenicity island SaPIbov1 (natural protein)”, the stoichiometry N (Stl per DUTφNM1) in series [1] and in series [3] was 1 throughout. Moreover, the stoichiometry N in series [2] was found to be 2. Besides, the maximal inhibition of the steady-state dUTPase activity of DUTφNM1 by Stl (0-300 nM) in series [4] is 40%. Further, in series [5], the Ki turned out to be 34 nM.

B1: φNM1 phage dUTPase (enzyme)
chain: TNTLTIDQLQELLQIQKEFDDRIPTLNLRDSKIAYVVEFFEWFNTLETFKNWKKKPGKPLDVQLDELADMLAFGLSIANQVGVSSEEIKEAIESSFKDTEFHKMFNFKDKEFAQDAVVSTPQIIFKEFYPDQQAIVIVIDIAYNLYSIDQLIDAYKKKMKRNHERQDGTADAGKGYV
notes: dUTPase of Staphylococcus aureus phage φNM1, Uniprot ID A0EWK2, residues 2-178; monomer mass 20976 Da printed; also called DUTφNM1; homodimeric φNM1 dUTPase; source: E. coli BL21 Rosetta (DE3), purified (glutathione-agarose, on-column thrombin cleavage); not shown: GST, N-terminal, cleaved
Take B1: the “stoichiometry N” value in series [6] was found to be 2.
